Measured values taken from the DeepSol protein solubility set.

test: soluble on expression in E. coli; label from the status in PepcDB or PDB records

| Sequence | soluble on expression in E. coli |
| --- | --- |
| MAHHHHHHMCLLIIEHLFYSPCTVTTVLSLKLFGGGEKTGKMSDVPKSQVGTDAKVAVAKKYTGEYYVKGMVGDKKSFAIEHSRGRQKKHTVNEFCVGDAIGRGAFAEVFQCWRPEEPHIVYAMKKIRKDLIVKRKQSLNVHTERDLLSDAKLRQKRVSCPWITDLVVAFQDQDFLYIVTEYCSGGDLISWLIRYDVFPEETARFYFVELVLALNALHKMGYVHRDVKPDNVLIDREGHVKLADFGLSKRDPDQAESTSVADDSYLTEDVTVDDDVKKRFRDKKERKVMFFSTVGSPAYIAPEVLIGRGYDYSCDWWSAGVILYEMIFGYPPFFNDNNTATAKKIIQFKEHLEFPKDQTTVSKEAIDLISHLIADSKERYGFEEIIRHPFCKGVPLTDSIRNEKAPFSVELNSPRDLQYFEPAPDNADIQKQPMTAVSREDQSVFVGFTSKLCDRNQSTTWSRALGRFHELQNFSDDD | not soluble |
| MLQKPKSVKLRALRSPRKFGVAGRSCQEVLRKGCLRFQLPERGSRLCLYEDGTELTEDYFPSVPDNAELVLLTLGQAWQGYVSDIRRFLSAFHEPQVGLIQAAQQLLCDEQAPQRQRLLADLLHNVSQNIAAETRAEDPPWFEGLESRFQSKSGYLRYSCESRIRSYLREVSSYPSTVGAEAQEEFLRVLGSMCQRLRSMQYNGSYFDRGAKGGSRLCTPEGWFSCQGPFDMDSCLSRHSINPYSNRESRILFSTWNLDHIIEKKRTIIPTLVEAIKEQDGREVDWEYFYGLLFTSENLKLVHIVCHKKTTHKLNCDPSRIYKPQTRLKRKQPVRKRQLEHHHHHH | not soluble |
| MGSDKIHHHHHHMPLSSVSRPSTQIQAQSTGKIFIIGLPRTGTTSVCVALLEQGLKVAHQGFTQQSFYQADAIADAPVFSDFKQLDGLFPGAKFVYLSRDIAPWIISMQMLLGRMLIHLDEHTGRFHPIMKRSFNHSFKLNLVTNPFDEVHLKQCYLEHQQTVEEYFTGRNDLLKININQVGSLNRLLEFIELAPQDLASSIKSAPLNFPHLNIGRNVASWDEYKHPNKVSANLSGPNKRKFFDYTLS | not soluble |
| MVQEANVRDKMRGTGVSVTRSGDNIILNMPNNVTFDSSSATLKPAGANTLTGVAMVLKEYPKTAVNVIGYTDSTGGHDLNMRLSQQRADSVASALITQGVDASRIRTQGLGPANPIASNSTAEGKAQNRRVEITLSPLLEHHHHHH | not soluble |
| MPVMDRAAMRTMATLQPSCMRWLCTTPSILDAAKAGWPISWAATPDSPATVTIRQFQASTCCRKKTFDVVVNTDVLEHVPEAELDCVLRDFRKLSTNAIIIPHLAKATRILPNGENAHCTIKTPSEWAQVFKRHYAHVYELPHHSAVHALFLCGDQERDVTALRGILEQYVAAKNEVRHHLLPLGKRIEKAIRLIRGKDINRLEHHHHHH | soluble |
| MVLLLRYRSLTINLTPLIPKSQKFHTLQSFRNPNFISIPKISASTNNPTTTTNRSISDATKFAKSVLFIPPGVEIEELTDDMVLPGSNIVIGPFAGHSQIKEVEFVKSSARARDCPKDDRPEIAILGRSNVGKSSLINCLVRKKEVALTSKKPGKTQLINHFLVNKSWYIVDLPGYGFAKVSDAAKTDWSAFTKGYFLNRDSLVCVLLLIDASVPPQKIDLDCANWLGRNNVPMTFVFTKCDKMKATKGKRPDENIKAFQQIIRENFKVHPPWILTSSVSGLGRDELLLHMSQLRNYWDQ | not soluble |
| MPGEFAKFPEQSAGSHQFRNPLDELTGSNTITNLTAHDFDYFTQSEKNSNLYTSENTSNSNRLNLNQNIPVGTLIDGFELINEASGSGFLDDQLVDVSDYSRDRTTKLDRNRNSPELIVALLQRKVQGIRFSSNYGREEEPCVIEIPPGTMVREMADDDWKMSELKEWFTKSRASSHLRDGLAMPMEELDCTPLICAMITRSDVMRINQDQAIHLLAVSVEKRIEVYQNFEWFNFILNLKIGDSVSVEVDETMRRVPAKVSWIGERPEASGIWYNVDFDGNTSQWPSSNQSYSSSHDRLNRQFDTNWNFEMSGSSSVAPSNSRLYYSPNQMHMPMKGGGVSALYDNRRLVQYSGDEEQYRSAPKPAPRERIIPVSRQQPEIEQRNSRSMKPSEPDYNTYSTHPPRPPPSSSMNYPSMSNTHSLQPSRSKSVQTIQRNQFVRQNPAERNERVESDQLNFRIGDQCIWNNNGAEERGIIKYIGFLKGHKTLYAGVEFKNTIGAGTGVFNREQLFLAKDGHAGFVELSSLESPSSSISSTSTSSSQHRRRLSSSRSQQMPAASGTSISVPVNGRHNVNGKQASIESLSDPPPPPYAPPSPPRASSAAAAHQQPPPLPPKPLARVEDFLIDSYDIGSHVVVRHLGAQRTGVVRWLGEEIDDEGDRIVRSAIVQLDEDVPTAWRRSHDASSYTGSPVVGGVLVPIQSLKHNHSGSSSNGASVVQTSTYPTSQTYNNISRRTEDFGSMDSGVEKQKCGIAKDMQQLVGRQKGIQGYCNSCYLDATLYAMFVQTTCFDFLLEKSIKGSETAQQFQKILAHEIVFPLRKVHYVRADHVMKLRKLLAELMPHVTGLTNEEKDPEEILGFIFSKVFHAEPFIKLIGQNHAKDSQYLVPIVVDDWLGGAATSQHLLERHMRSAQVTFAKAPPVLIMQLPRYGQQKVFDKILPLETIDITPFVAGAVPACSKCQACSEVYCPTCFLTRRVFYSEVIFCRKCFHHTHLLPEIEDHKSRDLYPPGKPQKKPHSHKMVLSAVLCIETSHYVAYVRTSSNQWVFFDSMADREGLSDGFNVPVVRECGNMSDWLSLQGWNRLKDADECGQIKVWELNKNISPNDRKLEIAMFGKQSSLDPLVGRLLSDSYICFYEDASPTSSSSSSSTIISSIKNMMN | not soluble |
| MASKLLRAVILGPPGSGKGTVCQRIAQNFGLQHLSSGHFLRENIKASTEVGEMAKQYIEKSLLVPDHVITRLMMSELENRRGQHWLLDGFPRTLGQAEALDKICEVDLVISLNIPFETLKDRLSRRWIHPPSGRVYNLDFNPPHVHGIDDVTGEPLVQQEDDKPEAVAARPRQYKDVAKPVIELYKSRGVLHQFSGTETNKIWPYVYTLFSNKITPIQSKEAYLEHHHHHH | soluble |
| MGHHHHHHSHMLVDNLYRVVSNQKDAAVIRVHLEVNASHEIFKGHFPEVPVLPGVCMVQCIKELIEESLLVKTQIDKGDMIKFLSMLNPVESNSIQAEISIKEKTETRIVFQATLKNEDRFLLKYSGSLVVLN | not soluble |
| MSLKTLENHNRIKVTVNGREIEVYDNLTILQALLQEDIHIPHLCYDIRLERSNGNCGLCVVTLISPDGERDVKACQTPIKEGMVICTNTPKLENYRKIRLEQLLSDHNADCVAPCVMTCPANIDIQSYLRHVGNGDFEAAIRVIKERNPFPIVCGRVCPHTCESQCRRNLVDAPVAINYVKRFAADWDMARPEPWTPEKKPPTGKKIAIVGAGPSGLSAAYYSAIKGHDVTVFERQPHPGGMMRYGIPEYRLPKAILDKEIEMIKKLGVKIMTEKALGIHIRLEDLSKDFDAVYLAIGSWQATPMHIEGEKLDGVWAGINYLEQVAKNVDIPLGDNVVVIGGGNTAIDCARTALRKGAKSVKLVYRCTREEMPAAPYEVEEAIHEGVEMIFLMAPTKIIVKDGKKKLVCIRMQLGEPDRSGRRRPVPIEGSEVEIDADTIIGAIGQSTNTQFLYNDLPVKLNKWGDIEVNGKTLQTSEYNIFAGGDCVTGPATVIEGHHHHHH | soluble |
| MSLFIDAHNHLDFFEEQEKLNKALDIIKNDNIITLGCSMDTKSYKFTKSLALKNKNIIPCFGIHPSRAHENFKNLECFDEYIRESKIIGEIGLDYVWVKEKEKYPHMKRVFTYFLEEAKKYNKITNIHTKGAESEIYNYIKKYELKTPIIHWYSGDKDTLKKLLDYGCYFTISVDIGYSKLSKEIVQLLPIDKILTETDGPTSLEWVNGDYGYPNVIKNVVKEISKIKNIQEEEVKGVIENNFKTLIRKEGITLEGHHHHHH | soluble |
| SLALSPGNLQKTAAGPDGQPQLAEKAPEKAQVDVPAAGDTAGLQPQSGRSGANINRATLPDGNVVSVYSPRPRDSDGPVLMSGQTYGQDPRMATRPNEELLEETAFGQLPVVGADGLRPMEQYARPWSGARGTRVAIVVGGLGLSQTGSQKAIRDLPPEVTLGFAASGNSLQRWMQDARREGHEILLQIPLEPFGYPGTNPGPDTLLAGDPAKVNIDRLHRSMAKITNYTGVMNYLGGRFLAEQSALEPVMRDIGKRGLLFLDDGSSAQSLSGGIAKAISAPQGFADVLLDGEVTEASILRKLDDLERIARRNGQAIGVASAFDESIAAISKWSREAGGRGIEIVGVSALVSGQAGQ | soluble |
| MKMATDDHQPPMVRGRRIKLKYAHAGGYNPPIVVIHGNMVRELPDSYKRYLMNYFRKSLEIMGTPIRINFQNSENPFENRANKLTLSQERKRKRMMSVVKNRKK | not soluble |
| SNAMATKLVIAIVQDKDANYLSDQFIDQNVRATKLSTTGGFLQSGNTTFMIGIEEERVPEVLEIIKKASHTREEFMTPSVNMDVNMEGTTAYPIKVQVGGATVLVLPVDQFERF | soluble |
| MHIIFDTSGFLSGLQLSLDRVYTTQEVINEIKDKYSRFNLEIAISSGKVIIMKPSTRSVEKVTKVLNLTKERKLSNTDISVIALALDLQPSIVFTDDLSVQNILKQLGIQFSSVKINKKVEKSFKFKYVCVNCKREFNIDHGECPYCGGKVVKRRIMELEHHHHHH | not soluble |
| MSLSVNDRDTSALRYFDFKDDEFVKPSPTEFNSWINREIVTKHHPHHNGYDEIYTKNQPQVIEGDFLYGDVRVKLANEWVSIYEYSLDSSSPSWNKIGRAVTDTNGHIKYNIPNNMKLSYGMHLIKLYVEGDGTSANMYIQVLDNTKKYVVFDMDGTLTTTDFEDVKQYAGEFFNSNYVAKMYPDVDNVVKYYASKGYGILYLTARPYWLSEESQTWLWKNGFPMGLLHTYTGGDVLLGEEAESFKAGYLNQLKSQGIEFDYGFGNEKTDVEAYSNIGIAKSNIFTIGKNRGIDGSVSIVSYTDYLKQLSGNEGHHHHHH | soluble |
| MLTGRESLLRLIGKRRRFLPNRHLLLSAHTPNSLNLEFNDYGNLVSLAGDDCRLSEDPTSSDDPSKFSDDLSLSTRKKRRLTQTTLLQSSFLSVPKQLEDGLVICTQQKSILDSETFEFSLVQRSEPSESICCKVEDGSCSPSREESLKTVTLDEDNGEAIETFIVGRKFSDVQDLEIGGDIFLLRHPENVKDRNAIKVISGDSEMLGYLPKDISQCLSPLIDDYDLKFEGTITSVPKKSSEAVLIKVVCHKMRSDGWKECELYGDFKPLWEKVLQVVEHQMQFPPKTTRYQLNFNVLLQEVLRSCSHLFTADEKAFLESFPTLSEDSQRLFIRLYTRKGPWFRLSNISYPEVTDSLQALKDLTVRGFMSSVKDANELDNQKMKEITELLNVTELRDILSMNKVFSRTSRKRDLINSLCSCYNDGTRINLATVILERTGLCAKVSSTAESLIWRVERLFFLNGEQDLSSFVLLDLGIIKYPTYKCIDSEQIFSNRTKLLAYEEAIEVAQLMDESLDNEDPQTVLKCIIIAETRISSSSLDSAHAAAFNRFTAPWVNSKVVLLGVSFFENQKRYNRAVYLLRRLLSCFNCDGRRGYWTVRLSTDLEHMGRPNESLTVAEQGLLDPWVRAGSRVALQRRILRLAKPPRRWKTPTFSNLVDNKIPEVTIQGRSLNCEVGIKNRFYGEDGEQCGVEQLALQYYSGEGGGWQGIHTESSIWLTIFGLLMWDILFSDVPGVFQTRFQVNETQ | not soluble |
| MGSDKIHHHHHHMAHTITIVGLGNYGIDDLPLGIYKFLKTQDKVYARTLDHPVIESLQDELTFQSFDHVYEAHDQFEDVYNDIVAQLVEAANEKDIVYAVPGHPRVAETTTVKLLALAKDNTDIDVKVLGGKSFIDDVFEAVNVDPNDGFTLLDATSLQEVTLNVRTHTLITQVYSAMVAANLKITLMERYPDDYPVQIVTGARSDGADNVVTCPLYELDHDENAFNNLTSVFVPKIITSTYLYHDFDFATEVIDTLVDEDKGCPWDKVQTHETLKRYLLEETFELFEAIDNEDDWHMIEELGDILLQVLLHTSIGKKEGYIDIKEVITSLNAKMIRRHPHIFGDANAETIDDLKEIWSKAKDAEGKQPRVKFEKVFAEHFLNLYEKTKDKSFDEASLKQWLEKGESNT | not soluble |
| GSCKLPVKKATVVYQGERVKIQEKFKNGMLHGDKVSFFCKNKEKKCSYTEDAQCIDGTIEVPKCFKEHSSLAFWKTDASDVKPCA | soluble |
